Measured values published in PMC5913840.

Tests used:
[1] = tested on: SavR (Staphylococcus aureus (NCTC8325?)); assay: ITC; conditions: EMSA: 20 mM Tris-HCl pH 8.0, 100 mM NaCl, 25 C, 20 min; footprinting: same plus 5 mM MgCl2, 1 mM CaCl2, 25 C 30 min; ITC: 20 mM Tris-HCl pH 8.0, 100 mM NaCl …
[2] = target: SavR;SavS (Staphylococcus aureus (NCTC8325?);Staphylococcus aureus (NCTC8325?)) (UniProt Q2FVF8); assay: ITC; conditions: EMSA: 20 mM Tris-HCl pH 8.0, 100 mM NaCl, 25 C, 20 min; footprinting: same plus 5 mM MgCl2, 1 mM CaCl2, 25 C 30 min; ITC: 20 mM Tris-HCl pH 8.0, 100 mM NaCl …

## TACGCTAATTATAGCGTACGCACTTGAGTACGTCAA (double strand) [36-bp savRS operator]
[1]
  Kd: 9.13 µM
[2]
  Kd: 0.0267 µM
